Variants at the floor of the assay were thinned out.
Experiments:
biotinyl-Ile-oxazolone = assay: self-aminoacylation, catalytic enhancement (BIO) (fold over background); higher = more active; k-Seq, kA / k0A0; sequences stand for … in GGGAAUGGAUCCACAUCUACGAAUUC…UUCACUGCAGACUUGACGAAGCUG
Procedure, shortened: (§1)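 Each biotinyl-aminoacyl-oxazolone, at 2–1250 μM, was incubated with mutagenized RNA pools (0.43 μM) carrying a 21-nt variable region. The 50 μL reactions contained HEPES/NaCl/KCl/MgCl2/CaCl2 buffer with 5% acetonitrile at pH 6.9–7.0 and ran for 90 minutes at room temperature. After streptavidin capture, RNA was measured by qPCR in triplicate and by Illumina sequencing, and catalytic enhancement was calculated as median kA over the uncatalyzed rate from a pseudo-first-order fit of per-sequence fraction reacted.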

biotinyl-Val-oxazolone = assay: self-aminoacylation, catalytic enhancement (BVO) (fold over background); higher = more active; k-Seq, kA / k0A0; sequences stand for … in GGGAAUGGAUCCACAUCUACGAAUUC…UUCACUGCAGACUUGACGAAGCUG
Procedure, shortened: as §1

biotinyl-Leu-oxazolone = assay: self-aminoacylation, catalytic enhancement (BLO) (fold over background); higher = more active; k-Seq, kA / k0A0; sequences stand for … in GGGAAUGGAUCCACAUCUACGAAUUC…UUCACUGCAGACUUGACGAAGCUG
Procedure, shortened: as §1

biotinyl-Trp-oxazolone = assay: self-aminoacylation, catalytic enhancement (BWO) (fold over background); higher = more active; k-Seq, kA / k0A0; sequences stand for … in GGGAAUGGAUCCACAUCUACGAAUUC…UUCACUGCAGACUUGACGAAGCUG
Procedure, shortened: as §1

biotinyl-Met-oxazolone = assay: self-aminoacylation, catalytic enhancement (BMO) (fold over background); higher = more active; k-Seq, kA / k0A0; sequences stand for … in GGGAAUGGAUCCACAUCUACGAAUUC…UUCACUGCAGACUUGACGAAGCUG
Procedure, shortened: as §1

biotinyl-Phe-oxazolone = assay: self-aminoacylation, catalytic enhancement (BFO) (fold over background); higher = more active; k-Seq, kA / k0A0; sequences stand for … in GGGAAUGGAUCCACAUCUACGAAUUC…UUCACUGCAGACUUGACGAAGCUG
Procedure, shortened: as §1

Row | Sequence | self-aminoacylation (biotinyl-Ile-oxazolone) | self-aminoacylation (biotinyl-Val-oxazolone) | self-aminoacylation (biotinyl-Leu-oxazolone) | self-aminoacylation (biotinyl-Trp-oxazolone) | self-aminoacylation (biotinyl-Met-oxazolone) | self-aminoacylation (biotinyl-Phe-oxazolone)
1 | AAAUUUGCUAAAAGUCGCAAG [Fam3.1 aminoacylation ribozyme variant] | 2.08 | 1.75 | 2.26 | 2.75 | 1.93 | 2.5
2 | CAGUUUGCUAAUAGUCGCAAA [Fam3.1 aminoacylation ribozyme variant] | 2.35 | – | – | – | – | 4.61
3 | AUUCUCCUAGGUCAUCGGCUG [Fam2.2 aminoacylation ribozyme variant] | 2.19 | 2.51 | 2.54 | – | 2.49 | 9.44
4 | ACGUCUGCUAAUAGUCGCAAG [Fam3.1 aminoacylation ribozyme variant] | 2.02 | – | – | 8.61 | 2.12 | 32.2
5 | CCCCACGUCAAGCAAUCGGUC [Fam1B.1 aminoacylation ribozyme variant] | – | 2.4 | – | 2.49 | – | 5.6
6 | AUUCCCCUGGUCAUCGAGUGG [Fam2.1 aminoacylation ribozyme variant] | 2.29 | 2.18 | 3.15 | 3.73 | 2.48 | –
7 | AUUCACUUAGGUCAGCGGGUG [Fam2.2 aminoacylation ribozyme variant] | 2.5 | – | 3.88 | 2.75 | 2.99 | 15.6
8 | AUUACCCUGGUCCUCGAGGGA [Fam2.1 aminoacylation ribozyme variant] | – | 2.15 | – | 2.37 | – | –
9 | AGUACCCUGGUCAUCGUGUGA [Fam2.1 aminoacylation ribozyme variant] | – | 2.06 | 3.43 | 3.88 | 3.07 | 16.3
10 | CCCCACUGCAAGCAAUCGGUC [Fam1B.1 aminoacylation ribozyme variant] | – | 2.35 | – | 3.43 | – | 4.31
11 | CCACACUUCAAGCAUUCGGUU [Fam1B.1 aminoacylation ribozyme variant] | 2.29 | 2.64 | 2.35 | – | 2.33 | 7.27
12 | AUUCACCUAGGUCAACGAGUG [Fam2.2 aminoacylation ribozyme variant] | 2.07 | – | 3.76 | – | 2.6 | 5.07
13 | AUUCACCUCGGUCAUCGGGUC [Fam2.2 aminoacylation ribozyme variant] | – | 2.01 | 2.04 | – | – | 9.78
14 | CCACACUUAAAGCAAUCGGGC [Fam1B.1 aminoacylation ribozyme variant] | 2.19 | – | – | – | – | –
15 | CCACACUUCUAGCAAUCGGCC [Fam1B.1 aminoacylation ribozyme variant] | – | 2.2 | 2.06 | 2.72 | 2.54 | –
16 | AAAUCUGCUAAUAGUCGCAAG [Fam3.1 aminoacylation ribozyme variant] | 2.48 | 2.04 | – | 9.08 | 2.01 | 19.3
17 | AAUACCCUCGUCAUCGAGUGA [Fam2.1 aminoacylation ribozyme variant] | 2.08 | – | 3 | 3.7 | 2.53 | 3.81
18 | GAGUUUCCUAAUAGUCGCAAG [Fam3.1 aminoacylation ribozyme variant] | 2.65 | 2.08 | – | 2.26 | – | 2.31
19 | AUUCACCUAGGUCAUCGCGAG [Fam2.2 aminoacylation ribozyme variant] | – | 2.31 | – | – | – | 4.46

Row | Sequence | self-aminoacylation (biotinyl-Ile-oxazolone) | self-aminoacylation (biotinyl-Val-oxazolone) | self-aminoacylation (biotinyl-Leu-oxazolone) | self-aminoacylation (biotinyl-Trp-oxazolone) | self-aminoacylation (biotinyl-Met-oxazolone) | self-aminoacylation (biotinyl-Phe-oxazolone)
20 | CCACACUUCAAGCAGUCGGCC [Fam1B.1 aminoacylation ribozyme variant] | – | 2.84 | 2.47 | – | 2.22 | 4.85
21 | AUUACCCUGGCCUUCGAGUGA [Fam2.1 aminoacylation ribozyme variant] | – | 2.53 | 4.36 | 5.17 | 3.21 | 17.9
22 | AUUACUCUGGCCAUCGAGUGA [Fam2.1 aminoacylation ribozyme variant] | 2.06 | – | 3.55 | 4.19 | 3.15 | 11.7
23 | CCACAAUUCAAGCAAUCGCUC [Fam1B.1 aminoacylation ribozyme variant] | 2.51 | 2.12 | 2.38 | – | 2.18 | –
24 | AACUUUGCUAAUACUCGCAAG [Fam3.1 aminoacylation ribozyme variant] | 2.19 | – | – | – | – | 2.02
25 | AAAUUUGCUAACAGUCGCAAG [Fam3.1 aminoacylation ribozyme variant] | 2.02 | – | – | – | – | 2.2
26 | AAUUUUGCUAAAAGUCGCAAG [Fam3.1 aminoacylation ribozyme variant] | 2.1 | – | 2.38 | 3.11 | – | 2.77
27 | AUUACCCUGGUCAGCGAGCGA [Fam2.1 aminoacylation ribozyme variant] | – | 2.08 | 2.33 | – | 2.34 | –
28 | AUUACCUUGGUCCUCGAGUGA [Fam2.1 aminoacylation ribozyme variant] | – | 2.11 | 3.95 | 4.39 | 3.05 | 17.8
29 | CCACACUUCAAGCAAUGGGUG [Fam1B.1 aminoacylation ribozyme variant] | – | 2.24 | 3 | 2.39 | 2.61 | 10.7
30 | AUUACCUUCGUCAUCGAGUGA [Fam2.1 aminoacylation ribozyme variant] | – | – | 2.18 | 2.15 | 2.22 | 2.48
31 | CCAUACUUCAAGCAAUCGGCC [Fam1B.1 aminoacylation ribozyme variant] | – | – | 2.33 | 3.74 | 2.36 | 2.88
32 | AUUACCAUGCUCAUCGAGUGA [Fam2.1 aminoacylation ribozyme variant] | – | – | 2.12 | 2.15 | 2.63 | 2.98
33 | AUUACCCUGGACAUCAAGUGA [Fam2.1 aminoacylation ribozyme variant] | – | – | 2.29 | 2.98 | 2.33 | 5.55
34 | GCACACAUCAAGCAAUCGGUC [Fam1B.1 aminoacylation ribozyme variant] | 2.01 | – | – | 2.22 | – | 3.12
35 | AUUACCCUGAUCAGCGAGUGA [Fam2.1 aminoacylation ribozyme variant] | – | 2.3 | 2.74 | 4.93 | 2.71 | 3.1
36 | AAGCUUGCUAAUAUUCGCAAG [Fam3.1 aminoacylation ribozyme variant] | 2.47 | 2.13 | – | 3.38 | – | –
37 | CCACACUUCAAGCAAUUGGUG [Fam1B.1 aminoacylation ribozyme variant] | 2.28 | – | 3.62 | 2.84 | 3.03 | 5.72
38 | CCACACUUCAGGCGAUCGGUC [Fam1B.1 aminoacylation ribozyme variant] | – | 2.42 | – | – | 2.1 | 4.75

Row | Sequence | self-aminoacylation (biotinyl-Ile-oxazolone) | self-aminoacylation (biotinyl-Val-oxazolone) | self-aminoacylation (biotinyl-Leu-oxazolone) | self-aminoacylation (biotinyl-Trp-oxazolone) | self-aminoacylation (biotinyl-Met-oxazolone) | self-aminoacylation (biotinyl-Phe-oxazolone)
39 | GAGCUUGCUAAUAGUCGCAAG [Fam3.1 aminoacylation ribozyme variant] | – | 2.02 | – | 2.4 | 2.03 | 4.81
40 | AUUCACCUUGGUCAUCGGGGG [Fam2.2 aminoacylation ribozyme variant] | – | 2.04 | 2.84 | 2.28 | 2.04 | 13
41 | AUUCACGUAGGUCAUCGGGAG [Fam2.2 aminoacylation ribozyme variant] | – | 2.13 | – | – | 2.07 | –
42 | CCACACUUCAAGCAUUCGGUA [Fam1B.1 aminoacylation ribozyme variant] | – | 2.44 | – | – | – | –
43 | CAGUCUGCUAAUAGUCGCAAG [Fam3.1 aminoacylation ribozyme variant] | 2.14 | – | – | 9.53 | 2.86 | 28.2
44 | AUUACACUGGUCAUAGAGUGA [Fam2.1 aminoacylation ribozyme variant] | – | 2.13 | 3.62 | 3.92 | 3.15 | 8.72
45 | AAGUUUGCCAAUAGUCGCAGG [Fam3.1 aminoacylation ribozyme variant] | – | 2.08 | 2.33 | 3.26 | 2.73 | 15.8
46 | AUUACCCUGGUCACCGAGUAA [Fam2.1 aminoacylation ribozyme variant] | – | 2.34 | 2.46 | – | 2.62 | 10.1
47 | AAGUUAGCCAAUAGUCGCAAG [Fam3.1 aminoacylation ribozyme variant] | 2.02 | – | 2.35 | 2.28 | 2.22 | 2.56
48 | AAGCAUGCUAAUAGUCGCAAG [Fam3.1 aminoacylation ribozyme variant] | 2.36 | – | – | 2.61 | 2.61 | 6.71
49 | AAGUUCGCUAAUAGUCGCACG [Fam3.1 aminoacylation ribozyme variant] | 2.34 | – | 2.35 | – | – | 2.18
50 | CCACACUUCAAGCAAACGGCC [Fam1B.1 aminoacylation ribozyme variant] | 2.6 | 3.77 | 3.75 | 3.66 | – | –
51 | CCACACCUCAAGCAAUCGGUA [Fam1B.1 aminoacylation ribozyme variant] | – | 2.1 | – | – | – | –
52 | AUUAUCCUCGUCAUCGAGUGA [Fam2.1 aminoacylation ribozyme variant] | – | – | 2.75 | 3 | 2.95 | 5.23
53 | CCCCACUUCAACCAAUCGGUC [Fam1B.1 aminoacylation ribozyme variant] | 2.37 | – | 2.99 | 53.6 | – | 101
54 | AUUCAACUAGGACAUCGGGUG [Fam2.2 aminoacylation ribozyme variant] | 2.05 | – | 3.38 | 2.79 | 2.42 | 17
55 | AUUCACGUAGGUCAUCGAGUG [Fam2.2 aminoacylation ribozyme variant] | – | – | 2.67 | 2.73 | 2.92 | 2.42
56 | GAGUUUGCUAAAAGUCGCAAG [Fam3.1 aminoacylation ribozyme variant] | – | 2.1 | – | 5.66 | – | 8.71

— the supplement of paper PMC9233669
